# From patent US20210101947A1 (UNIVERSITY OF SASKATCHEWAN, published 2021)
# Primed or numbered codes have the meaning given here. No end group written: not given here. FITC′ = not defined here
# T1: TAT2 cell penetrating peptide
# T1 construct: Synthesized; two copies of a 9 amino acid TAT peptide
# T1 peptide: RKKRRQRRRRKKRRQRRR
# B1: C43-4-FITC (peptide)
# peptide: NGSSHNDLRVRRLTLISRLC-{FITC′}
# notes: The synthesized 20 amino acid C43-4 peptide with a C-terminal FITC; also called C43-4-FITC peptide
# Biological target: T1, TAT2 cell penetrating peptide
# Test: peptides mixed; uptake into MDA-MB-231 cells seen by fluorescence microscopy
# Procedure: B. Using 0.1 mg/ml C43-4-FITC, weak toxicity is only observed when combined with TAT2, which is worsened with DOX. An equal number of cells were treated with TAT2 and C43-4-FITC alone or in complex, +/−0.5 uM DOX. 24 hours later, 4 random fields of cells were counted and combined. C. MDA-MB-231 cells were treated with 0.001 mg/ml peptide/TAT2 complex for 12 hours, or left untreated. Lysates were prepared and assessed with the antibodies shown. Cyclin B—APC substrate; the PARP […] cleavage fragment is an early sign of apoptosis; induction of total PARP indicates DNA damage; TFPI1 is a nucleolar MDR marker. D. Mice growing MDA-MB-231 cells stably expressing pcDNA-C43-4, injected or left untreated, with the C43-4-FITC/TAT2 complex (n=2 each). 100 ul of 0.01 mg/ml C43-4-FITC peptide was mixed with 25 ul of 1 mg/ml TAT2. The entire 125 ul was given to the mouse using an intraperitoneal (IP) injection. 1 injection/mouse was given in this experiment.
# The 20 amino acid C43-4 peptide was synthesized with a C-terminal FITC epitope to allow visualization of the peptide within the cell using fluorescent microscopy. The TAT2 cell penetrating peptide, encoding 2 copies of a 9 amino acid peptide ([…]; SEQ ID NO: 26) was also synthesized. […] After 24 hours, and prior to imaging, 4 independent microscope fields were counted for each sample and added together to get a total cell number. […]
binder,measurement,value
B1,binding result,binds
